Data from publication PMC4191604 (Journal of Medicinal Chemistry, 2014).
Residue numbers refer to the chain shown, from its start.

What was measured:
Test in all cases: SPR
[1] = target: T1, GBP1 mutant R227E/K228E (human, UniProt P32455 1-592, R227E | K228E)
T1 sequence (looked up): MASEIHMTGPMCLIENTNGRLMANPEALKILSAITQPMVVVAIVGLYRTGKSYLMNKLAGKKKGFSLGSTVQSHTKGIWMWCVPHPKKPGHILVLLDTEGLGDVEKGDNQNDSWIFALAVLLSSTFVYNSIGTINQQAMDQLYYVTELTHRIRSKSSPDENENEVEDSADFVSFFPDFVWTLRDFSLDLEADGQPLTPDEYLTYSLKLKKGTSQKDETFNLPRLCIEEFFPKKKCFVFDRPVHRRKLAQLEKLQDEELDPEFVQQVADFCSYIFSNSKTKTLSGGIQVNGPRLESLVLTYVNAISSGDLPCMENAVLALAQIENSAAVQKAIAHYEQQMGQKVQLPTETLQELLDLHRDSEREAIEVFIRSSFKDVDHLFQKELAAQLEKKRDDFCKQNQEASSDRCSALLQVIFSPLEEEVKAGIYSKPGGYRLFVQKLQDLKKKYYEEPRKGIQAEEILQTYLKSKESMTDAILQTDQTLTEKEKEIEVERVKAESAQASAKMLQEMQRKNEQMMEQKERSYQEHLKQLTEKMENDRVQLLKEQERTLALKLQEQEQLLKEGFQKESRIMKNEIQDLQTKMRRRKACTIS

[2] = target: T2, GBP1 mutant R48A (human, UniProt P32455 1-592, R48A)
T2 sequence (looked up): T1 sequence (looked up) with R48A, E227R, E228K

[3] = target: T3, GBP1 mutant D184A (human, UniProt P32455 1-592, D184A)
T3 sequence (looked up): T1 sequence (looked up) with D184A, E227R, E228K

[4] = target: T4, GBP1 mutant D103N (human, UniProt P32455 1-592, D103N)
T4 sequence (looked up): T1 sequence (looked up) with D103N, E227R, E228K

Kd [1]: > 10000 nM
Kd [2]: 21 ± 0.1 nM
Kd [3]: 77 ± 3 nM
Kd [4]: 15 ± 0.1 nM
B1: PIM1 (recombinant) (enzyme)
chain: not shown
